Laboratory results reported in paper PMC5743843 (Protein Science : A Publication of the Protein Society, 2017).

T1: FtsL (E. coli, UniProt P0AEN4 1-121)
T1 sequence: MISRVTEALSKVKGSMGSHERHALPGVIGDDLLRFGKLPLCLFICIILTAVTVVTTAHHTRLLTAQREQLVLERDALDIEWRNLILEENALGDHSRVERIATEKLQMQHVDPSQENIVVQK

T2: urease accessory protein UreH (Helicobacter pylori, UniProt Q09067 1-265)
T2 sequence: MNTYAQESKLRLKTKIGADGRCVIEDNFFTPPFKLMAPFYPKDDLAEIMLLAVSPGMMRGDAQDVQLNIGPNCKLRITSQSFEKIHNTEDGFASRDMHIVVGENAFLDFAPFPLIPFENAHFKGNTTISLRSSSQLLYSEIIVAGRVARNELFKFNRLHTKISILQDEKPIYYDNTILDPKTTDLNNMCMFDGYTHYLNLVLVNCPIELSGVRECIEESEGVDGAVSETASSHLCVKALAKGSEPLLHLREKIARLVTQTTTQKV

T3: extracellular region of Nectin-Like 2 (UniProt Q9BY67 45-374)
T3 sequence: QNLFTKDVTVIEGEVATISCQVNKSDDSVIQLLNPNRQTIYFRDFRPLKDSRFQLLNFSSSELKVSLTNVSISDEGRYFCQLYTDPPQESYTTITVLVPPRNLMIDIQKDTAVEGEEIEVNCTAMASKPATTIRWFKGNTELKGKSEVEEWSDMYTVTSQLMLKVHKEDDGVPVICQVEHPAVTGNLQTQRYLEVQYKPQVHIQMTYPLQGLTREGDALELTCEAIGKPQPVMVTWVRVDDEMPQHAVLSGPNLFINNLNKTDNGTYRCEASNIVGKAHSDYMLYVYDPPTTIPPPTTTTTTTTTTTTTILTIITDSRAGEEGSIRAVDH

B1: FtsB (natural protein)
chain: MGKLTLLLLAILVWLQYSLWFGKNGIHDYTRVNDDVAAQQATNAKLKARNDQLFAEIDDLNGGQEALEERARNELSMTRPGETFYRLVPDASKRAQSAGQNNR
B2: urease accessory protein UreG (enzyme)
chain: MVKIGVCGPVGSGKTALIEALTRHMSKDYDMAVITNDIYTKEDAEFMCKNSVMPRERIIGVETGGCPHTAIREDASMNLEAVEEMHGRFPNLELLLIESGGDNLSATFNPELADFTIFVIDVAEGDKIPRKGGPGITRSDLLVINKIDLAPYVGADLKVMERDSKKMRGEKPFIFTNIRAKEGLDDVIAWIKRNALLED
B3: urease accessory protein UreF (natural protein)
chain: MDKGKSVKSTEKSVGMPPKTPKTDNNAHVDNEFLILQVNDAVFPIGSYTHSFGLETYIQQKKVTNKESALEYLKANLSSQFLYTEMLSLKLTYESALQQDLKKILGVEEVIMLSTSPMELRLANQKLGNRFIKTLQAMNELDMGEFFNAYAQKTKDPTHATSYGVFAASLGIELKKALRHYLYAQTSNMVINCVKSVPLSQNDGQKILLSLQSPFNQLIEKTLELDESHLCTASVQNDIKAMQHESLYSRLYMS
B4: extracellular region of CRTAM (domain or fragment)
chain: SLTNHTETITVEEGQTLTLKCVTSLRKNSSLQWLTPSGFTIFLNEYPALKNSKYQLLHHSANQLSITVPNVTLQDEGVYKCLHYSDSVSTKEVKVIVLATPFKPILEASVIRKQNGEEHVVLMCSTMRSKPPPQITWLLGNSMEVSGGTLHEFETDGKKCNTTSTLIIHTYGKNSTVDCIIRHRGLQGRKLVAPFRFEDLVTDEETASDALERNSLSSQDPQQPTSTVSVTEDSSTSEIDKEEKEQTTQDPDLTTEANPQYLGLARKKSG

What was measured:
FtsL = target: T1, FtsL; assay: FRET or BRET + other: single molecule photobleaching
[1] = target: B3; assay: crystal structure
crystal structure = target: the molecule itself; assay: crystal structure
[2] = target: T2, urease accessory protein UreH; assay: crystal structure
[3] = target: T3, extracellular region of Nectin-Like 2; assay: SPR

## B1
FtsL
  stoichiometry N: 1 FtsB per FtsL

## B2
[1]
  binding result: binds

## B3
Crystal structure
  binding result: binds
[2]
  binding result: binds

## B4
[3]
  Kd: 37.2 nM
